Where two headings read alike, the source gives them in different places.
Columns and labels:
Test in all cases: SPR
S10 [1] = target: S10
R14 [2] = target: R14
S15 [3] = target: S15
R17 [4] = target: R17
S02 [5] = target: S02
R07 [6] = target: R07
R10 [7] = target: R10
S08 [8] = target: S08
S10 [9] = target: S10; remark: listed apart in the source
R14 [10] = target: R14; remark: listed apart in the source
S15 [11] = target: S15; remark: listed apart in the source
R17 [12] = target: R17; remark: listed apart in the source
S02 [13] = target: S02; remark: listed apart in the source
R07 [14] = target: R07; remark: listed apart in the source
R10 [15] = target: R10; remark: listed apart in the source
S08 [16] = target: S08; remark: listed apart in the source
[17] = target: T1, HCoV-229E S1 subunit (17–560 aa) (human coronavirus 229E, UniProt P15423 17-560)
T1 chain: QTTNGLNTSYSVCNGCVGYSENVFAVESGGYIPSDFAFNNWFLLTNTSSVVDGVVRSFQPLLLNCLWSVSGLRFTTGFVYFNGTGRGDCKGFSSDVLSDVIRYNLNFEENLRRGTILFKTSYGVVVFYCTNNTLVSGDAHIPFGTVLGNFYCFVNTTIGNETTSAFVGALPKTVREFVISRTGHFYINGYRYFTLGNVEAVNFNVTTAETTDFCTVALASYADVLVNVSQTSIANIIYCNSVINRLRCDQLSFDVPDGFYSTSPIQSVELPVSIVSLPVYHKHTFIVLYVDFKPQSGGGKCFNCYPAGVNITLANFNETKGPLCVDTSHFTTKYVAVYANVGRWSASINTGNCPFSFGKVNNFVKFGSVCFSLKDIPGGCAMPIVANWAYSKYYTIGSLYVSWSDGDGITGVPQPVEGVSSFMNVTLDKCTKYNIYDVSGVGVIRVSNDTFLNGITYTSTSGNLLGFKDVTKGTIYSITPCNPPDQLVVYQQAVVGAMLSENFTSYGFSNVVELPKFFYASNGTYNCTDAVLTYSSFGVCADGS

[18] = target: T2, HCoV-229E NTD (17–265 aa) (human coronavirus 229E, UniProt P15423 17-265)
T2 chain: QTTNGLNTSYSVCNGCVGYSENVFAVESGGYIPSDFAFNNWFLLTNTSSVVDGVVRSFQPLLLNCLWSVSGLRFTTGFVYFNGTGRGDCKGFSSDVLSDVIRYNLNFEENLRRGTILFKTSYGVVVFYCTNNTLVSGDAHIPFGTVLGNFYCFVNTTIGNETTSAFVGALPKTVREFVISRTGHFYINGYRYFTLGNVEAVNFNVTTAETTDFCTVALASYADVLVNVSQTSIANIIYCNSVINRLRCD

[19] = target: T3, HCoV-NL63 S ectodomain (16–1291 aa) (human coronavirus NL63, UniProt Q6Q1S2 16-1291)
T3 chain: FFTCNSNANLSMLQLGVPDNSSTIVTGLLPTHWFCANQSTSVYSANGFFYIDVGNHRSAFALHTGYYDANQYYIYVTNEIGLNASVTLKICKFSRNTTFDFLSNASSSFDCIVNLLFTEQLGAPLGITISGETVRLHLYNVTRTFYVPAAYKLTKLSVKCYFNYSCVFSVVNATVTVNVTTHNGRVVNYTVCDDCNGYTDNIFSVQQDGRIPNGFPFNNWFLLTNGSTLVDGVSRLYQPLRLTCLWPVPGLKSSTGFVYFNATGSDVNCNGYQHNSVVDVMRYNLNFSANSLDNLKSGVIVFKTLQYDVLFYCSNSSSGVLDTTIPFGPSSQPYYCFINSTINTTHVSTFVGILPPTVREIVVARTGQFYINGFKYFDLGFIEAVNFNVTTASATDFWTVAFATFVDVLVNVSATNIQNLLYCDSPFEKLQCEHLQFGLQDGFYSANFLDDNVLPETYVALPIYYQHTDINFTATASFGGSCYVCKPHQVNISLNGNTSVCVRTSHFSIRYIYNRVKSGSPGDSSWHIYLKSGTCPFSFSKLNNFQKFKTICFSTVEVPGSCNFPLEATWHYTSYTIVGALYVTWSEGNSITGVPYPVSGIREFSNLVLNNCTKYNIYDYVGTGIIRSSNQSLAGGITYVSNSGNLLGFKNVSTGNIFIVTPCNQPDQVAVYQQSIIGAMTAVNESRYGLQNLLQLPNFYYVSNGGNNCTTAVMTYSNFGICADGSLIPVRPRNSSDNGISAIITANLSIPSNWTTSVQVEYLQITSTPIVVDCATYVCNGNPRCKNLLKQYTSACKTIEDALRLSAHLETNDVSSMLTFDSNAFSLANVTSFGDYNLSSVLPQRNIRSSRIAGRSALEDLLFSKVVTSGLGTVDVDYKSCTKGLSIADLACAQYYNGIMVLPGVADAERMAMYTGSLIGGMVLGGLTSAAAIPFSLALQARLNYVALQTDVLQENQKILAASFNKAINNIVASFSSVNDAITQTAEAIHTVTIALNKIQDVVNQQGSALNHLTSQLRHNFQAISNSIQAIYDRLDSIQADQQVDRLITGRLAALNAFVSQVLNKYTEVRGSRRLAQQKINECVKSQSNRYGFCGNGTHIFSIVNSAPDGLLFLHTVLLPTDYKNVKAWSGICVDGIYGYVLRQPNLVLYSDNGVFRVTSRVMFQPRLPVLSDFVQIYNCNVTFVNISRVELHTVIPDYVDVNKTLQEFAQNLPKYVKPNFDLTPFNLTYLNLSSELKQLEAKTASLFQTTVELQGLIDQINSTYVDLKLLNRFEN

[20] = target: T3, HCoV-NL63 S ectodomain (16–1291 aa)
[21] = target: T4, HCoV-229E S ectodomain (17–1115 aa), 229E S trimer (human coronavirus 229E, UniProt P15423 17-1115)
T4 chain: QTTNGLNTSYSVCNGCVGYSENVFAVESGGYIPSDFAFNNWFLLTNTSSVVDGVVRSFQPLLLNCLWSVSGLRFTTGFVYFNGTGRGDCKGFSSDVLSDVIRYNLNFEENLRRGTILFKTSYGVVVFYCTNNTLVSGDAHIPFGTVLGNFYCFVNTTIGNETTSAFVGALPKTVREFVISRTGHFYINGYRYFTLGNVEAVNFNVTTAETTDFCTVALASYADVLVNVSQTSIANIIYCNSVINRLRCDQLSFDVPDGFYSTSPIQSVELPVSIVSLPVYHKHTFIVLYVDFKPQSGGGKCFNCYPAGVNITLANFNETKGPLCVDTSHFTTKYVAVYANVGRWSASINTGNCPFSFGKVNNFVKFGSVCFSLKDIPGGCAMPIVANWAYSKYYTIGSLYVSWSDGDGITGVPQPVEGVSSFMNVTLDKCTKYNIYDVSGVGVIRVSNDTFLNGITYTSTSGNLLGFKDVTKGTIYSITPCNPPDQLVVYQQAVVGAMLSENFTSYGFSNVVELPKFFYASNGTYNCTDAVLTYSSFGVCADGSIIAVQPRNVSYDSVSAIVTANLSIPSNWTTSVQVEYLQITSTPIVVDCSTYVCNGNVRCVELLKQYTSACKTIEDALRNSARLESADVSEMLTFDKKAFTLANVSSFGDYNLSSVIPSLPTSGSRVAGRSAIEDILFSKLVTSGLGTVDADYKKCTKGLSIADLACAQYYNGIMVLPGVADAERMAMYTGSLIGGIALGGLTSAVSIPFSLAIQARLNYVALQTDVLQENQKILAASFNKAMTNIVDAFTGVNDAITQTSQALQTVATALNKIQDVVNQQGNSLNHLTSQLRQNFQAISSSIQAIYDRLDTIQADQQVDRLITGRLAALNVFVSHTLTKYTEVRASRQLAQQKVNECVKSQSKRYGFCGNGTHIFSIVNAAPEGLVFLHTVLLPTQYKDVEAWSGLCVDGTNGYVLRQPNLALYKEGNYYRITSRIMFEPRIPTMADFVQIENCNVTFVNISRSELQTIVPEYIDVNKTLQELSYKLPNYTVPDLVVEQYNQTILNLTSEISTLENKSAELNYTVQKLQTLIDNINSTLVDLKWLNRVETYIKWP

[22] = target: T1, HCoV-229E S1 subunit (17–560 aa)
[23] = target: T2, HCoV-229E NTD (17–265 aa)
[24] = target: T4, HCoV-229E S ectodomain (17–1115 aa), …
[25] = target: T5, HCoV-229E S2 subunit (575–1115 aa) (human coronavirus 229E, UniProt P15423 575-1115)
T5 chain: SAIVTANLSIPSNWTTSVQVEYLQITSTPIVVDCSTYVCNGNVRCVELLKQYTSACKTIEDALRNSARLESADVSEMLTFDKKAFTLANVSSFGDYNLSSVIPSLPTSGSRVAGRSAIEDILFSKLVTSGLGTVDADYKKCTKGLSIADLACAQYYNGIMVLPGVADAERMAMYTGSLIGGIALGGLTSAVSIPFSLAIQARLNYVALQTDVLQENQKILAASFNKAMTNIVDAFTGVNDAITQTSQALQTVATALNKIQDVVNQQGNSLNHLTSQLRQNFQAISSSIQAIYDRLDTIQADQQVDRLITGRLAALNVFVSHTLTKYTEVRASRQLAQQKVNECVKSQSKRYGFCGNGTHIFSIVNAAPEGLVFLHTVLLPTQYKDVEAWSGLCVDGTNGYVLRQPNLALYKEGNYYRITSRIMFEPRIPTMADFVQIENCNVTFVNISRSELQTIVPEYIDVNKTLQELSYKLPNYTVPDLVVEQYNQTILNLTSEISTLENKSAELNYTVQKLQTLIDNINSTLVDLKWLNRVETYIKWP

B1: HCoV-229E RBD (294–435 aa) (domain or fragment)
chain: PVYHKHTFIVLYVDFKPQSGGGKCFNCYPAGVNITLANFNETKGPLCVDTSHFTTKYVAVYANVGRWSASINTGNCPFSFGKVNNFVKFGSVCFSLKDIPGGCAMPIVANWAYSKYYTIGSLYVSWSDGDGITGVPQPVEGV
Kd (S10 [1]): 0.51 nM
koff (S10 [1]): 0.0031 s⁻¹
Kd (R14 [2]): 0.81 nM
koff (R14 [2]): 0.003 s⁻¹
Kd (S15 [3]): 0.26 nM
koff (S15 [3]): 0.00097 s⁻¹
Kd (R17 [4]): 0.92 nM
koff (R17 [4]): 0.0025 s⁻¹
Kd (S02 [5]): 0.49 nM
koff (S02 [5]): 0.0018 s⁻¹
koff (R07 [6]): 0.0016 s⁻¹
Kd (R10 [7]): 0.32 nM
koff (R10 [7]): 0.0019 s⁻¹
Kd (S08 [8]): 2.9 nM
koff (S08 [8]): 0.0053 s⁻¹
Kd (S10 [9]): 0.5 nM
Kd (R14 [10]): 0.8 nM
Kd (S15 [11]): 0.3 nM
Kd (R17 [12]): 0.9 nM
Kd (S02 [13]): 0.5 nM
Kd (R07 [14]): 2 nM
Kd (R10 [15]): 0.3 nM
Kd (S08 [16]): 3 nM

B2: Fab F07 (Fab, V domains shown)
VH: EVQLVESGGGLVQPGGSLRLSCAASGFNISYYSIHWVRQAPGKGLEWVASIYPYYGYTSYADSVKGRFTISADTSKNTAYLQMNSLRAEDTAVYYCARSSGYYHYPYSHSGLDYWGQGTLVTVSS
VL: DIQMTQSPSSLSASVGDRVTITCRASQSVSSAVAWYQQKPGKAPKLLIYSASSLYSGVPSRFSGSRSGTDFTLTISSLQPEDFATYYCQQSYYWGGPITFGQGTKVEIK
koff [17]: 0.00036 s⁻¹
koff [18]: 0.00053 s⁻¹
Kd [19]: 6.4 µM
Kd [20]: 3.9 µM
koff [21]: 0.00035 s⁻¹
Kd [22]: 0.7 nM
Kd [23]: 3.1 nM
Kd [24]: 1.4 nM

B3: Fab F12 (Fab, V domains shown)
VH: EVQLVESGGGLVQPGGSLRLSCAASGFNLYYYYIHWVRQAPGKGLEWVASISPYSGYTSYADSVKGRFTISADTSKNTAYLQMNSLRAEDTAVYYCARAFSSYYSHSVGLDYWGQGTLVTVSS
VL: DIQMTQSPSSLSASVGDRVTITCRASQSVSSAVAWYQQKPGKAPKLLIYSASSLYSGVPSRFSGSRSGTDFTLTISSLQPEDFATYYCQQHSWGGLITFGQGTKVEIK
koff [25]: 2.7e-05 s⁻¹
koff [21]: 0.00091 s⁻¹

— paper PMC9636267 (2022)
